Experimental data as given in publication PMC9519624.

Target: IPO11 (Importin-11) (UniProt Q9UI26)
Assay: co-immunoprecipitation, western blot
Details: reference: wild-type RPRM; sites S98

binding against the reference: stronger
Substance: RPRM (Reprimo) (from UniProt Q9NS64) RPRM S98A
